Test results from patent US20120237442A1 (published 2012).

Legend:
human CD20 [1] = target: T1, human CD20 (human, UniProt P11836 1-297); assay: ELISA, reference veltuzumab
T1 construct: whole, on cells
T1 sequence (looked up): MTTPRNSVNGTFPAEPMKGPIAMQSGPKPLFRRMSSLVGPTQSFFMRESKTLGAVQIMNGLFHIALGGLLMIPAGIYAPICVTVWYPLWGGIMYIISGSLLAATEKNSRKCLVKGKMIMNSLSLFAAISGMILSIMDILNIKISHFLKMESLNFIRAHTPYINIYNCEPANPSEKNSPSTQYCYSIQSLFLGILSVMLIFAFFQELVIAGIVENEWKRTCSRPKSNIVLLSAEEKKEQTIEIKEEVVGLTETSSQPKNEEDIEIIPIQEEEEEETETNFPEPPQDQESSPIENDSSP

human CD20 [2] = target: T1, human CD20; assay: flow cytometry on live NHL cells, reference veltuzumab

B1: 20-(20)-(20) (antibody)
heavy 1: not shown
heavy 2: not shown
light: DIQLTQSPSSLSASVGDRVTMTCRASSSVSYIHWFQQKPGKAPKPWIYATSNLASGVPVRFSGSGSGTDYTFTISSLQPEDIATYYCQQWTSNPPTFGGGTKLEIKRTVAAPSVFIFPPSDEQLKSGTASVVCLLNNFYPREAKVQWKVDNALQSGNSQESVTEQDSKDSTYSLSSTLTLSKADYEKHKVYACEVTHQGLSSPVTKSFNRGEC
modifications: DNL complex locked by disulfide bridges between the cysteines of AD2 and DDD2. Stoichiometry: 2 IgG-AD2 heavy chains, 4 Fd-DDD2 chains, 6 kappa chains. Each unique chain is listed once.
notes: One Fc and 6 anti-CD20 Fabs; also called Hex-hA20; HexAb of veltuzumab
Human CD20 [1]
  fold higher binding avidity compared to veltuzumab: 3 fold
Human CD20 [2]
  fold slower off-rate compared to veltuzumab: 3 fold
